B1: SLC35F2 (parent)
chain: QYLAERYKVNTPMLQSFINYCLLF
B2: RAB40B (parent)
chain: YSLTTSSTHKRSSLRKVKLVRPPQ

Variants of: B1
Assay: protein stability index of a GFP-peptide fusion (GPS, HEK-293T) (PSI 1-6); higher = more stable
Conditions: c terminus: a fixed tail appended
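Note: lentivirally expressed fusions sorted by FACS into six bins by GFP to DsRed ratio, PSI derived from sequencing read proportions per bin multiplied by bin number.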

Protein stability index of substitutions, site by site:
Q15: K 1.28 | N 2.61 | M 2.15 | L 3.28 | P 3.78 | H 2.23 | E 3.23 | R 2.29 | C 2.95 | G 3.36 | D 3.24 | A 2.71 | W 2.83 | V 2.86 | S 3.63 | F 3.17 | T 3.41 | I 1.67 | Y 3.21
K8: E 2.04 | Q 2.13 | A 2.54 | V 2.61 | S 3.15 | C 3.39 | D 2.44 | L 2.87 | F 3.46 | M 2.75 | R 1.63 | P 2.35 | N 2.22 | Y 3.27 | W 2.55 | G 2.38 | H 2.64 | T 2.43
Y20: M 2.09 | P 2.17 | W 2.03 | I 2.62 | V 2.78 | A 3.18 | L 2.94 | N 2.41 | S 2.3 | G 2.35 | T 2.27 | K 2.5 | F 3.1 | H 2.97 | R 2.47 | E 2.09 | C 2.64 | Q 2.56 | D 1.81
T11: I 2.6 | L 2.89 | H 2.19 | P 1.8 | E 2.27 | V 2.5 | F 2.04 | K 2.21 | A 2.13 | S 2.65 | D 2.63 | C 3.08 | N 2.71 | M 2.69 | Y 3.51 | G 2.28 | Q 2.96 | W 2.12 | R 2.57
M13: K 2.04 | I 2.52 | C 3.76 | Y 2.4 | R 2.64 | S 2.93 | Q 2.02 | A 3.48 | V 3.22 | F 2.34 | L 1.83 | W 1.9 | E 2.99 | H 2.59 | P 2.69 | G 2.2 | N 3.77 | D 2.2 | T 2.74
L14: P 2.12 | D 2.82 | G 2.08 | S 1.87 | T 2.65 | A 2.37 | Q 3.39 | M 3.31 | E 2.45 | F 1.69 | Y 3.03 | C 2.03 | R 2.66 | H 2.11 | K 2.38 | V 2.31 | N 2.12 | W 2.4 | I 2.73
I18: F 1.98 | H 2.9 | T 2.82 | M 2.56 | N 2.1 | A 1.93 | P 3.3 | S 2.34 | C 3.62 | R 3.24 | D 3.29 | Y 2.15 | L 2.96 | Q 2.48 | W 2.53 | G 1.92 | E 2.75 | K 1.99 | V 1.34
F17: S 3.47 | R 3.78 | E 2.3 | M 3.02 | G 2.45 | T 2.45 | I 3 | V 3.29 | N 2.12 | Y 2.14 | K 2.65 | C 3.45 | Q 2.34 | W 1.6 | A 1.76 | P 1.8 | H 3.26 | D 1.82
L22: Q 2.44 | S 2.21 | T 2.29 | Y 3.57 | D 2.05 | K 2.83 | F 3.25 | H 3.33 | E 3.47 | A 1.57 | P 1.82 | M 2.85 | V 3.01 | N 2.29 | G 2.23 | C 1.89 | I 3.04 | R 2.03
P12: F 3.15 | K 1.74 | T 2.54 | D 3.1 | R 3.12 | W 1.29 | E 2.52 | Y 3.33 | I 3.44 | C 3.04 | G 2.73 | L 3.97 | M 3.68 | N 2.72 | A 4.77 | H 3.1 | S 2.35 | Q 1.7
L23: A 2.27 | N 2.59 | M 2.7 | G 1.91 | I 3.19 | K 1.64 | D 2.96 | E 1.78 | W 2.47 | S 2.08 | H 1.81 | R 2.46 | T 1.94 | Y 2.86 | Q 1.3 | F 2.96 | P 1.63 | C 1.69
S16: R 2.63 | V 3.01 | F 2.11 | G 2.22 | C 2.44 | D 3 | P 3.19 | Y 1.79 | E 2.19 | T 1.72 | Q 1.65 | W 1.87 | L 3.45 | I 3 | A 2.43 | N 2.36 | K 2.76 | H 1.83
F24: P 3.94 | K 1.98 | Y 3.33 | N 2.58 | L 2.95 | W 2.19 | D 2.21 | S 1.81 | T 2.69 | H 2.13 | V 3.47 | Q 3.26 | R 2.88 | M 3.6 | C 1.99 | G 2.48 | E 2.28 | I 3.21
V9: I 2.51 | G 2.3 | S 2.58 | H 2.48 | T 2.4 | K 2.37 | Q 2.87 | A 1.65 | C 2.68 | D 1.8 | N 2.23 | M 2.54 | P 2.24 | F 3.49 | R 1.86 | W 1.98 | L 2.6 | E 2.65 | Y 2.06
N19: V 2.75 | A 3.55 | H 2.18 | L 1.71 | F 2.49 | S 2.38 | T 2.51 | G 2.7 | K 2.56 | W 2.94 | D 2.49 | Y 2.31 | I 1.48 | Q 3.31 | R 2.35 | M 2.08 | E 2.22 | P 2.7
C21: Y 3.61 | P 2.55 | R 2.05 | E 1.65 | G 2.33 | Q 2.3 | H 2.29 | T 2.11 | L 2.52 | S 2.67 | I 2.06 | D 2.36 | V 1.62 | F 1.99 | W 2.44 | K 3.46 | N 2.96 | M 2.52 | A 3.53
N10: I 2.88 | T 2.51 | S 2.36 | E 2.2 | L 3.17 | M 2.96 | Q 1.87 | W 2.29 | P 1.68 | H 2.71 | G 2.54 | C 2.2 | K 2.14 | Y 2.75 | V 2.92 | R 1.85 | A 2.09 | F 2.88 | D 2.83

Variants of: B2
Assay: as above
Conditions: c terminus: a fixed tail appended

Protein stability index of substitutions, site by site:
Y1: M 3.2 | P 3.97 | S 4.16 | K 3.61 | I 3.15 | A 3.99 | R 3.94 | G 3.75 | W 3.19 | H 3.46 | T 3.66 | D 4.11 | L 3.15 | F 2.81 | E 4.12 | V 2.74 | N 4.04 | Q 3.82 | C 3.16

— the supplement of paper PMC10567573
